Article PMC9164399, “The PRMT5-LSD1 axis confers Slug dual transcriptional activities and promotes breast cancer progression” (Journal of Experimental & Clinical Cancer Research : CR, 2022)

B1: GST-fused Slug (natural protein, human, UniProt O43623 1-268, looked up)
chain: MPRSFLVKKHFNASKKPNYSELDTHTVIISPYLYESYSMPVIPQPEILSSGAYSPITVWTTAAPFHAQLPNGLSPLSGYSSSLGRVSPPPPSDTSSKDHSGSESPISDEEERLQSKLSDPHAIEAEKFQCNLCNKTYSTFSGLAKHKQLHCDAQSRKSFSCKYCDKEYVSLGALKMHIRTHTLPCVCKICGKAFSRPWLLQGHIRTHTGEKPFSCPHCNRAFADRSNLRAHLQTHSDVKKYQCKNCSKTFSRMSLLHKHEESGCCVAH
notes: Slug (SNAI2), cDNA in the bacterial expression vector pGEX-KG; also called GST-Slug
B2: Flag-Slug (natural protein)
chain: B1 chain
notes: Slug (SNAI2), wild-type cDNA in lentiviral vector CD532A; 268 aa by the printed limits of the fragments; also called Flag-tagged Slug-FL; Flag-tagged Slug; source: HEK293T, expressed, in lysate; purified from HEK293T cells (for the GST pull-down)

How the values were obtained:
Flag-PRMT5 = target: T1, Flag-PRMT5 (human, UniProt O14744 1-637); assay: pull-down; GST fusion proteins on glutathione-Sepharose 4B beads mixed with Flag-tagged proteins purified from HEK293T cells, 2 h at 4 °C; washed with 50 mM Tris-HCl pH 8.0, 0.2% NP-40, 150 mM NaCl, 2 mM EDTA; immunoblot; conditions: both partners purified
T1 construct: Protein arginine methyltransferase 5 (PRMT5), wild-type cDNA in lentiviral vector CD532A; 637 aa by the printed domain limits; also called Flag-tagged full-length (FL) PRMT5; PRMT5-FL; source: HEK293T, co-expressed, in lysate; purified from HEK293T cells (for the GST pull-down)

GST-fused LSD1 = GST-fused LSD1 (human, UniProt O60341-2 1-876); assay: as above; conditions: both partners purified

T1 sequence (O14744 whole entry, the tested form may be a part): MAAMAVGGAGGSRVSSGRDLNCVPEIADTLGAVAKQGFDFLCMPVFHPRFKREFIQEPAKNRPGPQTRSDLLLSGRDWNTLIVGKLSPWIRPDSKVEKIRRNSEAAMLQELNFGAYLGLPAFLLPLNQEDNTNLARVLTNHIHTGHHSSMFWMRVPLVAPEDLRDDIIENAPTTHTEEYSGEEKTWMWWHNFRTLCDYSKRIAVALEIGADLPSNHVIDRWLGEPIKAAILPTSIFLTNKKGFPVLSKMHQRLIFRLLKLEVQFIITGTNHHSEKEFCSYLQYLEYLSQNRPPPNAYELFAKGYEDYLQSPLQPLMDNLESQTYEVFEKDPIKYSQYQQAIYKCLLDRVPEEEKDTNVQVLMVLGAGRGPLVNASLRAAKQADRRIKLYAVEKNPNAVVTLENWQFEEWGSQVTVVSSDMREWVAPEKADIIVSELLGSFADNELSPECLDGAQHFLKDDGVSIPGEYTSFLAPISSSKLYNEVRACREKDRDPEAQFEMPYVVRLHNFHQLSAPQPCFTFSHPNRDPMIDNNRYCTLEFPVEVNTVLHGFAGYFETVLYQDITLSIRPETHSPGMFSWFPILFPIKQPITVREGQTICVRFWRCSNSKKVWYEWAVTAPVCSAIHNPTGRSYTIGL

Row | Binder | binding result (Flag-PRMT5) | binding result (GST-fused LSD1)
1 | B1 | binds | –
2 | B2 | – | binds
